{"source": "patent US20080219971A1", "about": "(VACCINEX, published 2008)", "key": {"[1]": {"target": "T1, human CD100-Fc (human, UniProt Q92854 22-734, limits assumed)", "T1 construct": "also called CD100-Fc antigen", "T1 sequence (looked up)": "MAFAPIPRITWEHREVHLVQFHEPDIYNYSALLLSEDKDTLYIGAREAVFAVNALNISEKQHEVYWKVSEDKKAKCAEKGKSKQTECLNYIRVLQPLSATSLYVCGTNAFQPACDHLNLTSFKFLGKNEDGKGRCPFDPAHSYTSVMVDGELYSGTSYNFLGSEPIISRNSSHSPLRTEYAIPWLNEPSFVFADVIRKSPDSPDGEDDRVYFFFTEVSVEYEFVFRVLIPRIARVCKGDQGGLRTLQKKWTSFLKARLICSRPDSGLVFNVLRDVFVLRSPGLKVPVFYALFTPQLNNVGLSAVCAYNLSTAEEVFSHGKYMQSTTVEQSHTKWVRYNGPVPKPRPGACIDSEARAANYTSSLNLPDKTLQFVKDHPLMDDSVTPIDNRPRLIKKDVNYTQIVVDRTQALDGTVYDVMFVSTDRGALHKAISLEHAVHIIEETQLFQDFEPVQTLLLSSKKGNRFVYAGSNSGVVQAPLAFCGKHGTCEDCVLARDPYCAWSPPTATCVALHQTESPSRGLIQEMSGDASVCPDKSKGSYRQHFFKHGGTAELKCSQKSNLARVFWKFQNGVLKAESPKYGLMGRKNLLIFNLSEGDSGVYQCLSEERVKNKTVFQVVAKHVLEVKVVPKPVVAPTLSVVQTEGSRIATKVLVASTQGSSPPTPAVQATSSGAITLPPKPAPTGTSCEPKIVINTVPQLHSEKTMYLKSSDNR", "test": "competition ELISA on CD100-Fc: BD16 titrated against 5 ng/ml MAb 657, bound MAb 657 detected with anti-human Kappa HRP", "protocol": "(§1) Competition ELISA assays were then performed. The ELISA plate was coated with CD100-Fc antigen, and BD16 or BB18 were allowed to bind individually to CD100. […] The cells were washed and antibody activity detected. Bound chimeric or human MAb was detected using anti-human Kappa HRP."}, "[2]": {"target": "T2, Human CD100 (human, UniProt Q92854 22-734, limits assumed)", "T2 construct": "also called SEMA4D; Hu CD100", "T2 sequence (looked up)": "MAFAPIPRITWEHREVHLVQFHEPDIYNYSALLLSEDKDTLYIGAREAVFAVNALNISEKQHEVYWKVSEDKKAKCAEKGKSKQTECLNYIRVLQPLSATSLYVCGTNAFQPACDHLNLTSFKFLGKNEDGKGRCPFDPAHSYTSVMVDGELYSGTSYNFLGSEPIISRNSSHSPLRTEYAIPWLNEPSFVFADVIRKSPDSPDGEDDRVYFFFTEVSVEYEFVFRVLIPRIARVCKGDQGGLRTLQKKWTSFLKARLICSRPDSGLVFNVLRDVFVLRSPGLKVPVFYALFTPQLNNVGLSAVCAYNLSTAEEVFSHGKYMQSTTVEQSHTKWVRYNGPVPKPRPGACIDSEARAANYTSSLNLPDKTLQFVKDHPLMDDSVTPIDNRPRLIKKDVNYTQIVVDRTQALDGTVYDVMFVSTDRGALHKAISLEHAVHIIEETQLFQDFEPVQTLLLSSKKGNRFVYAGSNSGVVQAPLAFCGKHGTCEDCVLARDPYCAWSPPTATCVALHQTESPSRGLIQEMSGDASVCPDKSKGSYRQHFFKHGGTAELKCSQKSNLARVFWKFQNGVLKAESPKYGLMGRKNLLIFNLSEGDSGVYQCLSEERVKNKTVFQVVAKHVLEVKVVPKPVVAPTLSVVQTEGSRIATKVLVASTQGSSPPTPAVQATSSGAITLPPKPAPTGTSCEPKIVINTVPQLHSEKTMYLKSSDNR", "test": "ELISA method of Friguet et al.; column head 'Affinity (nM) IC50 ELISA'; antigen not named", "protocol": "Antibody affinity was measured according to the ELISA method described in Friguet et al. (1985) J Immunol Methods 77(2):305-19."}, "[3]": {"target": "T1, human CD100-Fc", "test": "competition ELISA on CD100-Fc: BD16 titrated against 5 ng/ml MAb 301, bound MAb 301 detected with anti-human Kappa HRP", "protocol": "as §1"}, "[4]": {"target": "T1, human CD100-Fc", "test": "ELISA on CD100-Fc antigen"}, "[5]": {"target": "T3, huErb2-Fc (human, UniProt P04626 23-652)", "T3 construct": "Negative control antigen; also called huErb2-Fc antigen", "test": "ELISA on huErb2-Fc antigen (Neg Ctrl)"}, "[6]": {"target": "T4, BSA (UniProt P02769 25-607)", "T4 construct": "Negative control antigen", "T4 sequence (P02769 25-607 limits assumed)": "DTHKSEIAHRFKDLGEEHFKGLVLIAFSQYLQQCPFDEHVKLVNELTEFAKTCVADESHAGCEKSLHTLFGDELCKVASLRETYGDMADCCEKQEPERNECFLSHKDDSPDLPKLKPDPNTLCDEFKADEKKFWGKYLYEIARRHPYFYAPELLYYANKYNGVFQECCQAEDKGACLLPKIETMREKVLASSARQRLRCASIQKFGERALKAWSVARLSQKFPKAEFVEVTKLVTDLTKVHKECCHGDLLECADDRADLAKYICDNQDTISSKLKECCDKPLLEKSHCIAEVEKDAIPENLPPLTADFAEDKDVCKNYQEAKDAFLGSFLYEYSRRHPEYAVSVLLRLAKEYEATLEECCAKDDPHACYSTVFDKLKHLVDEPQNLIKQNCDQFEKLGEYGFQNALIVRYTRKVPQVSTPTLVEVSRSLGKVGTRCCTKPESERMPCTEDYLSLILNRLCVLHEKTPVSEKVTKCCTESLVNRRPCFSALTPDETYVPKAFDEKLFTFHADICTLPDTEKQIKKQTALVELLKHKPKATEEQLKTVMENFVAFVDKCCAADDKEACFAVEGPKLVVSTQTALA", "test": "ELISA"}, "[7]": {"target": "T5, streptavidin (UniProt P22629 37-163, limits assumed)", "T5 construct": "Negative control antigen", "T5 sequence (P22629 37-163 limits assumed)": "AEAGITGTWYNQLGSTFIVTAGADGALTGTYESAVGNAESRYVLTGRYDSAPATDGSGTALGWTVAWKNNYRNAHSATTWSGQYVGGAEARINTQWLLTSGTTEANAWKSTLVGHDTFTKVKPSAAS", "test": "ELISA"}, "[8]": {"target": "T6, human serum albumin (human, UniProt P02768 25-609)", "T6 construct": "Negative control antigen", "T6 sequence (P02768 25-609 limits assumed)": "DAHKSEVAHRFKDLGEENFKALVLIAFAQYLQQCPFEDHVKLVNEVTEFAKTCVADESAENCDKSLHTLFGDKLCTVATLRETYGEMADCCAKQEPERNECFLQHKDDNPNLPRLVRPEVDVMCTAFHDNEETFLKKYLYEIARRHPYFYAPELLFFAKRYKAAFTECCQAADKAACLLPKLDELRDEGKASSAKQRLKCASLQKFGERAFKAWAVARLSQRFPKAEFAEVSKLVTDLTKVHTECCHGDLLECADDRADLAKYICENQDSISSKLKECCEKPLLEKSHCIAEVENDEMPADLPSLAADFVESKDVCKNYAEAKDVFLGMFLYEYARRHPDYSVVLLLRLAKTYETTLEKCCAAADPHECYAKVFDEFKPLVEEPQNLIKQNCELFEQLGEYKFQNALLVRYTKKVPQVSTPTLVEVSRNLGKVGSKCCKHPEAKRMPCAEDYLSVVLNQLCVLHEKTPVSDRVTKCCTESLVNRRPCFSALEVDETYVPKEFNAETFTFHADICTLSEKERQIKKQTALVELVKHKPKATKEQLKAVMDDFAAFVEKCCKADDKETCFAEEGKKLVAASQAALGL", "test": "ELISA"}, "[9]": {"target": "T3, huErb2-Fc", "test": "ELISA"}, "[10]": {"target": "T2, Human CD100", "test": "affinity testing, method and unit not printed in Example 10 (nM as in Table 3); mutant value, before the parentheses"}, "[11]": {"target": "T2, Human CD100", "test": "affinity testing, method and unit not printed in Example 10 (nM as in Table 3)"}}, "data": [{"binder": "BD16 (antibody, V domains shown, Murine hybridoma anti-human CD100 antibody; also called mouse BD16; BD16 mouse MAb) VH: EVQLQQSGPELVKPGASVKMSCKASGYTFTDYYMDWVKQSHGESFEWIGRVNPYHGGATYNQKFKGKATLTVDKSSRTAYMELNSLTYEDSAVYYCAREENSYDGYYGMDYWGQGTTVTVSS VL: DIVLTQSPSSLSVSAGEKVTMDCKSSQSLFNSGNQKNYLAWYHQKPGQPPKLLIYGASTRESGVPDRFTGSGSGTDFTLTISSVQAEDLAVYYCQNDHTYPYTFGGGTKLEIK", "values": [{"measurement": "IC50 (read off the curve)", "setting": "[1]", "result": "~0.03", "unit": "µg/mL"}, {"measurement": "Kd", "setting": "[2]", "result": 0.13, "unit": "nM"}, {"measurement": "IC50 (read off the curve)", "setting": "[3]", "result": "~0.02", "unit": "µg/mL"}]}, {"binder": "MAb 301 (antibody, human IgG1, V domains shown, Chimeric, human IgG1, human kappa constant domain; also called chimeric BD16; H387/L124) VH: EVQLQQSGPELVKPGASVKMSCKASGYTFTDYYMDWVKQSHGESFEWIGRVNPYHGGATYNQKFKGKATLTVDKSSRTAYMELNSLTYEDSAVYYCAREENSYDGYYGMDYWGQGTTVTVSS VL: DIVLTQSPSSLSVSAGEKVTMDCKSSQSLFNSGNQKNYLAWYHQKPGQPPKLLIYGASTRESGVPDRFTGSGSGTDFTLTISSVQAEDLAVYYCQNDHTYPYTFGGGTKLEIK", "values": [{"measurement": "EC50 (read off the curve)", "setting": "[4]", "result": "~0.02", "unit": "µg/mL"}, {"measurement": "binding result", "setting": "[5]", "result": "no binding (tested: 500 ng/ml)"}, {"measurement": "binding result", "setting": "[6]", "result": "no binding"}, {"measurement": "binding result", "setting": "[7]", "result": "no binding"}, {"measurement": "binding result", "setting": "[8]", "result": "no binding"}]}, {"binder": "MAb 657 (antibody, human IgG1, V domains shown, Humanized BD16, human IgG1; also called H1235/L284) VH: QVQLVQSGAEVKKPGSSVKVSCKASGYTFTDYYMDWVRQAPGQGLEWIGRVNPYHGGATYNQKFKGKATITVDKSTSTAYMELSSLRSEDTAVYYCAREENSYDGYYGMDYWGQGTLVTVSS VL: DIVMTQSPLSLPVSPGEPATINCKSSQSLFNSGNQKNYLAWYLQKPGQPPKLLIYGASTRESGVPDRFSGSGSGTDFTLTISSLQAEDVAVYYCQNDHTYPYTFGQGTKLEIK", "values": [{"measurement": "EC50 (read off the curve)", "setting": "[4]", "result": "~0.03", "unit": "µg/mL"}, {"measurement": "binding result", "setting": "[5]", "result": "no binding (tested: 500 ng/ml)"}, {"measurement": "Kd", "setting": "[2]", "result": 0.12, "unit": "nM"}, {"measurement": "binding result", "setting": "[6]", "result": "no binding"}, {"measurement": "binding result", "setting": "[7]", "result": "no binding"}, {"measurement": "binding result", "setting": "[8]", "result": "no binding"}]}, {"binder": "MAb 1656 (antibody, human IgG1, V domains shown, Humanized BD16, fully human frameworks, human IgG1; also called H1651/L284) VH: QVQLVQSGAEVKKPGSSVKVSCKASGYTFTDYYMDWVRQAPGQGLEWMGRVNPYHGGATYNQKFKGRVTITADKSTSTAYMELSSLRSEDTAVYYCAREENSYDGYYGMDYWGQGTLVTVSS VL: DIVMTQSPLSLPVSPGEPATINCKSSQSLFNSGNQKNYLAWYLQKPGQPPKLLIYGASTRESGVPDRFSGSGSGTDFTLTISSLQAEDVAVYYCQNDHTYPYTFGQGTKLEIK", "values": [{"measurement": "Kd", "setting": "[2]", "result": 0.12, "unit": "nM"}, {"measurement": "binding result", "setting": "[6]", "result": "no binding"}, {"measurement": "binding result", "setting": "[9]", "result": "no binding"}, {"measurement": "binding result", "setting": "[7]", "result": "no binding"}, {"measurement": "binding result", "setting": "[8]", "result": "no binding"}]}, {"binder": "MAb 2220 (antibody, V domains shown, H1651 mutant VH combined with L284; also called H1651 Y60F with L284) VH: QVQLVQSGAEVKKPGSSVKVSCKASGYTFTDYYMDWVRQAPGQGLEWMGRVNPYHGGATFNQKFKGRVTITADKSTSTAYMELSSLRSEDTAVYYCAREENSYDGYYGMDYWGQGTLVTVSS VL: DIVMTQSPLSLPVSPGEPATINCKSSQSLFNSGNQKNYLAWYLQKPGQPPKLLIYGASTRESGVPDRFSGSGSGTDFTLTISSLQAEDVAVYYCQNDHTYPYTFGQGTKLEIK", "values": [{"measurement": "Kd", "setting": "[10]", "result": 0.04, "unit": "nM"}]}, {"binder": "MAb 2225 (antibody, V domains shown, H1651 mutant VH combined with L284; also called H1651 Y60V with L284) VH: QVQLVQSGAEVKKPGSSVKVSCKASGYTFTDYYMDWVRQAPGQGLEWMGRVNPYHGGATVNQKFKGRVTITADKSTSTAYMELSSLRSEDTAVYYCAREENSYDGYYGMDYWGQGTLVTVSS VL: DIVMTQSPLSLPVSPGEPATINCKSSQSLFNSGNQKNYLAWYLQKPGQPPKLLIYGASTRESGVPDRFSGSGSGTDFTLTISSLQAEDVAVYYCQNDHTYPYTFGQGTKLEIK", "values": [{"measurement": "Kd", "setting": "[11]", "result": 0.04, "unit": "nM"}]}, {"binder": "MAb 2219 (antibody, V domains shown, H1651 mutant VH combined with L284; also called H1651 T59W with L284) VH: QVQLVQSGAEVKKPGSSVKVSCKASGYTFTDYYMDWVRQAPGQGLEWMGRVNPYHGGAWYNQKFKGRVTITADKSTSTAYMELSSLRSEDTAVYYCAREENSYDGYYGMDYWGQGTLVTVSS VL: DIVMTQSPLSLPVSPGEPATINCKSSQSLFNSGNQKNYLAWYLQKPGQPPKLLIYGASTRESGVPDRFSGSGSGTDFTLTISSLQAEDVAVYYCQNDHTYPYTFGQGTKLEIK", "values": [{"measurement": "Kd", "setting": "[11]", "result": 0.08, "unit": "nM"}]}]}
